In US20240124575A1 (SIMCERE ZAIMING PHARMACEUTICAL, published 2024):

B1: C33B904 hIgG1 (antibody, V domains shown)
VH: EVQLVESGGGLVQPGRSLRLSCAASGFTFDDYAMHWVRQAPGKGLEWVSGIGWSGGSIVYADSVKGRFTISRDNAKNSLYLQMNSLRAEDTALYYCAKDSPYGDFFDYWGQGTLVTVSS
VL: DIVMTQSPDSLAVSLGERATINCKSSQTVFYSSNNKNYLAWYQQKPGQPPKLLISWASTRKSGVPDRFSGSGSGTDFTLTVSSLQAEDVAVYYCQHYYSTPYTFGQGTKLEIKR
notes: intact human IgG1; variable regions from US20190382481A1; also called C33B3904; C331B904
B2: C33B904 (antibody, human IgG1, kappa, V domains shown)
VH: B1 VH
VL: B1 VL
notes: control antibody, intact human IgG1 form; variable regions from US20190382481A1; also called C33B904 hIgG1; C331B904

Tests used:
[1] = biological target: T1, human CD33-V-his (human, UniProt P20138 18-144); assay: ELISA on coated human CD33-V-his
T1 construct: expressed in HEK293E; also called hCD33-V-his; human CD33 protein V-domain; not shown: His tag

[2] = biological target: T2, human CD33-His (extracellular domain Asp 18-His 259) (human, UniProt P20138 18-259); assay: competitive ELISA vs coated S006-NB146-40 2ug/mL; soluble 25ug/ml
T2 construct: range 18-259; bought protein; also called hCD33-his; human CD33 protein; not shown: His tag
Method: (§1) VHH antibodies and control antibodies with known epitopes were subjected to epitope classification with competitive ELISA. ELISA plates were coated with 2 μg/mL antibodies according to the method in Example 5.1; the human CD33-his protein was subjected to a gradient dilution from 30 μg/mL, and EC80 values (Tables 26-27) were calculated. ELISA plates were coated with 2 μg/mL antibodies; after 25 µg/mL of antibodies to be tested were added, a human CD33-his protein having an EC80 concentration corresponding to each of the antibodies to be tested was then added for incubation for 2 h. The plates were washed 5 times with PBS, then HRP-labeled anti-His antibodies (purchased from GenScript, Cat. No. A00612) were added for incubation for 1 h, and the plates were washed 5 times. A TMB substrate was added at 50 μL/well and incubated at room temperature for 10 min, then a stop solution (1.0 M HCl) was added at 50 μL/well. OD_{450 nm} values were read using an ELISA plate reader (Insight, purchased from PerkinElmer), and the competition rate between the antibodies was calculated according to the OD_{450 nm} values using a formula. The results are shown in FIGS. 12A-12B, the higher the value of the competition rate, the closer the epitopes to which two antibodies bind.

[3] = biological target: T2, human CD33-His (extracellular domain …); assay: competitive ELISA vs coated S006-NB146-60 2ug/mL; soluble 25ug/ml
Method: as §1

[4] = biological target: T3, monkey CD33-His protein (monkey); assay: ELISA on coated monkey CD33-his
T3 construct: also called monkey CD33 protein

[5] = biological target: T2, human CD33-His (extracellular domain …); assay: competitive ELISA vs coated C33B904 3ug/mL; soluble 25ug/ml
[6] = biological target: T2, human CD33-His (extracellular domain …); assay: competitive ELISA vs coated S006-NB146-39 2ug/mL; soluble 25ug/ml
Method: as §1

[7] = biological target: T2, human CD33-His (extracellular domain …); assay: competitive ELISA vs coated S006-NB146-3 2ug/mL; soluble 25ug/ml
Method: as §1

[8] = biological target: T4, human CD33-his protein (human, UniProt P20138 18-259); assay: competition ELISA, coated human CD33-his, vs Biotin-C33B904 at EC80; antibody 3.91 nM
T4 construct: range 18-259; bought protein; also called hCD33-his; recombinant human CD33-his; not shown: His tag
Method: (§2) The plate was sealed with a plastic film and incubated at 4° C. overnight, washed twice with PBS the next day, and a blocking solution [PBS+2% (w/w) BSA] was added for blocking at room temperature for 2 h. The blocking solution was discarded, and VHH-Fc antibody or negative control antibody serially diluted from 100 nM was added at 50 μL/well. After incubation at 37° C. for 2 h, the plate was washed 3 times with PBS. A secondary antibody labeled with HRP (horseradish peroxidase) (purchased from Sigma, Cat. No. A0170) was added. After incubation for 1 h at 37° C., the plate was washed 5 times with PBS. A TMB substrate was added at 50 μL/well. After incubation at room temperature for 10 min, a stop solution (1.0 N HCl) was added at 50 μL/well. The OD450 nm values were read on an ELISA plate reader (Multimode Plate Reader, EnSight, purchased from Perkin Elmer). The assay results for the binding of the VHH-Fc to hCD33-his by ELISA are shown in FIGS. 7A and 7B and Tables 11 and 12. […] The IgG control was hIgG1, and the data in the table are OD450 nm values.
(§3) ELISA plates were coated with 2 μg/mL human CD33-his protein according to the method in Example 5.1; the Biotin-C331B904 antibody was subjected to a gradient dilution from 15 μg/mL, and EC80 values (0.18 μg/mL) were calculated. […] OD_{450 nm} values were read using an ELISA plate reader (Insight, purchased from PerkinElmer). […]

[9] = biological target: T4, human CD33-his protein; assay: competition ELISA, coated human CD33-his, vs Biotin-C33B904 at EC80; antibody 31.25 nM
Method: (§4) ELISA plates were coated with 2 μg/mL human CD33-his protein according to the method in Example 5.1; the Biotin-C331B904 antibody was subjected to a gradient dilution from 15 μg/mL, and EC80 values (0.18 μg/mL) were calculated. ELISA plates were coated with 2 μg/mL human CD33-his protein; starting from 40 μg/mL, the VHH antibodies to be tested were diluted in a 1:2 dilution ratio to obtain seven concentrations and added to the ELISA plates, and then Biotin-C331904 antibodies with the EC80 concentrations were added for incubation for 2 h. The plates were washed 5 times with PBS and then […] (purchased from Sigma, Cat. No. S2438) were added for incubation for 1 h, and the plates were washed 5 times. A TMB substrate was added at 50 μL/well and incubated at room temperature for 10 min, then a stop solution (1.0 M HCl) was added at 50 μL/well. OD_{450 nm} values were read using an ELISA plate reader (Insight, purchased from PerkinElmer). Then, analysis was performed by software (GraphPad Prism8), and data were fitted for curve plotting. The results are shown in FIGS. 13A-13B and Tables 28 and 29.

[10] = biological target: T4, human CD33-his protein; assay: competition ELISA, coated human CD33-his, vs Biotin-C33B904 at EC80; antibody 3.91 nM; remark: listed apart in the source
Method: as §4

[11] = biological target: T4, human CD33-his protein; assay: competition ELISA, coated human CD33-his, vs Biotin-C33B904 at EC80; antibody 62.50 nM
Method: as §2, §3

[12] = biological target: T4, human CD33-his protein; assay: competition ELISA, coated human CD33-his, vs Biotin-C33B904 at EC80; antibody 0.98 nM
Method: as §4

T2 sequence (P20138 18-259 limits assumed): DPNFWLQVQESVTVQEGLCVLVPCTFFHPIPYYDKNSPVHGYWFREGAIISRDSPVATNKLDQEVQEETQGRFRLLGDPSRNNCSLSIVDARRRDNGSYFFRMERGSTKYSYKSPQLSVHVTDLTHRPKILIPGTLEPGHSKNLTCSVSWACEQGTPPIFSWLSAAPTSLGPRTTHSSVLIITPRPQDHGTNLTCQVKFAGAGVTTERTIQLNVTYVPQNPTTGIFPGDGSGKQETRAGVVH
T4 sequence (P20138 18-259 limits assumed): as above
T1 sequence (P20138 other isoform, or with tags, fused parts or gaps limits assumed): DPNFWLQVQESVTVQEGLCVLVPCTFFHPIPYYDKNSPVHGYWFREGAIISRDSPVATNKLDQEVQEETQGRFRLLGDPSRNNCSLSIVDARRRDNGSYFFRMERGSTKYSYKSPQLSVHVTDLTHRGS

Row | Binder | binding result [1] | inhibition rate [2] [%] | inhibition rate [3] [%] | EC50 (read off the curve) [4] [pM] | inhibition rate [5] [%] | inhibition rate [6] [%] | inhibition rate [7] [%] | OD450 (Biotin-C33B904 signal) [8] | OD450 (Biotin-C33B904 signal) [9] | OD450 (Biotin-C33B904 signal) [10] | OD450 (Biotin-C33B904 signal) [11] | OD450 (Biotin-C33B904 signal) [12]
1 | B1 | no binding (tested: 100 nM) | -5 | 8 | ~200 | 86 | 85 | -9 | – | – | – | – | –
2 | B2 | – | – | – | – | – | – | – | 2.25 | 0.66 | 1.77 | 0.24 | 2.22
